Assay results published in US20180009871A1 (INTARCIA THERAPEUTICS, published 2018).
Where no end group is shown, it is not given here. [ ]: non-standard residue; d: D form. Aib = CC(C)(N)C(=O)O

T1: hGIPR (human, UniProt P48546 22-466, limits assumed)
T1 sequence (looked up): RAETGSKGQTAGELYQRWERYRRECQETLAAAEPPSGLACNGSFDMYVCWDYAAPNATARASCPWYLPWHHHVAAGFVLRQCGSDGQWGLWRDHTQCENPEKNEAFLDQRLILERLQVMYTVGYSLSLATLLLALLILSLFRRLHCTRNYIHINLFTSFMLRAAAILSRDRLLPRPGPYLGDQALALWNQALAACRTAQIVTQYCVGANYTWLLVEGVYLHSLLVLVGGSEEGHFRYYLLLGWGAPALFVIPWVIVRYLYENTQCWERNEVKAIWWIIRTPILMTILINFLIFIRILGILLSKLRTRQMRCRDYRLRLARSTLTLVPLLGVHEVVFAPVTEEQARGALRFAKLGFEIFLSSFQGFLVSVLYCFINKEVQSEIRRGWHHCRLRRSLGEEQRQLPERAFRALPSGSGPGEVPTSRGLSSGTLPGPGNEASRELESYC

B1: Compound A2 (peptide)
peptide: YSHGTFTSDYSKYLD[Aib]KSAQEFV[Aib]WLEDEPSSGAPPPS-OH
modifications: N-terminus assumed
SMILES: CC(C)C[C@H](NC(=O)[C@H](Cc1ccc(O)cc1)NC(=O)[C@H](CCCCN)NC(=O)[C@H](CO)NC(=O)[C@H](Cc1ccc(O)cc1)NC(=O)[C@H](CC(=O)O)NC(=O)[C@H](CO)NC(=O)[C@@H](NC(=O)[C@H](Cc1ccccc1)NC(=O)[C@@H](NC(=O)CNC(=O)[C@H](Cc1c[nH]cn1)NC(=O)[C@H](CO)NC(=O)[C@@H](N)Cc1ccc(O)cc1)[C@@H](C)O)[C@@H](C)O)C(=O)N[C@@H](CC(=O)O)C(=O)NC(C)(C)C(=O)N[C@@H](CCCCN)C(=O)N[C@@H](CO)C(=O)N[C@@H](C)C(=O)N[C@@H](CCC(N)=O)C(=O)N[C@@H](CCC(=O)O)C(=O)N[C@@H](Cc1ccccc1)C(=O)N[C@H](C(=O)NC(C)(C)C(=O)N[C@@H](Cc1c[nH]c2ccccc12)C(=O)N[C@@H](CC(C)C)C(=O)N[C@@H](CCC(=O)O)C(=O)N[C@@H](CC(=O)O)C(=O)N[C@@H](CCC(=O)O)C(=O)N1CCC[C@H]1C(=O)N[C@@H](CO)C(=O)N[C@@H](CO)C(=O)NCC(=O)N[C@@H](C)C(=O)N1CCC[C@H]1C(=O)N1CCC[C@H]1C(=O)N1CCC[C@H]1C(=O)N[C@@H](CO)C(=O)O)C(C)C
B2: Compound A1 (peptide)
peptide: YSHGTFTSDYSKYLD[Aib]KYAQEFV[Aib]WLEDEPSSGAPPPS-OH
modifications: N-terminus assumed
SMILES: CC(C)C[C@H](NC(=O)[C@H](Cc1ccc(O)cc1)NC(=O)[C@H](CCCCN)NC(=O)[C@H](CO)NC(=O)[C@H](Cc1ccc(O)cc1)NC(=O)[C@H](CC(=O)O)NC(=O)[C@H](CO)NC(=O)[C@@H](NC(=O)[C@H](Cc1ccccc1)NC(=O)[C@@H](NC(=O)CNC(=O)[C@H](Cc1c[nH]cn1)NC(=O)[C@H](CO)NC(=O)[C@@H](N)Cc1ccc(O)cc1)[C@@H](C)O)[C@@H](C)O)C(=O)N[C@@H](CC(=O)O)C(=O)NC(C)(C)C(=O)N[C@@H](CCCCN)C(=O)N[C@@H](Cc1ccc(O)cc1)C(=O)N[C@@H](C)C(=O)N[C@@H](CCC(N)=O)C(=O)N[C@@H](CCC(=O)O)C(=O)N[C@@H](Cc1ccccc1)C(=O)N[C@H](C(=O)NC(C)(C)C(=O)N[C@@H](Cc1c[nH]c2ccccc12)C(=O)N[C@@H](CC(C)C)C(=O)N[C@@H](CCC(=O)O)C(=O)N[C@@H](CC(=O)O)C(=O)N[C@@H](CCC(=O)O)C(=O)N1CCC[C@H]1C(=O)N[C@@H](CO)C(=O)N[C@@H](CO)C(=O)NCC(=O)N[C@@H](C)C(=O)N1CCC[C@H]1C(=O)N1CCC[C@H]1C(=O)N1CCC[C@H]1C(=O)N[C@@H](CO)C(=O)O)C(C)C
B3: Compound A4 (peptide)
peptide: YSHGTFTSDYSKYLD[Aib]KRAQEFVIWLEDEPSSGAPPPS-OH
modifications: N-terminus assumed
SMILES: CC[C@H](C)[C@H](NC(=O)[C@@H](NC(=O)[C@H](Cc1ccccc1)NC(=O)[C@H](CCC(=O)O)NC(=O)[C@H](CCC(N)=O)NC(=O)[C@H](C)NC(=O)[C@H](CCCNC(=N)N)NC(=O)[C@H](CCCCN)NC(=O)C(C)(C)NC(=O)[C@H](CC(=O)O)NC(=O)[C@H](CC(C)C)NC(=O)[C@H](Cc1ccc(O)cc1)NC(=O)[C@H](CCCCN)NC(=O)[C@H](CO)NC(=O)[C@H](Cc1ccc(O)cc1)NC(=O)[C@H](CC(=O)O)NC(=O)[C@H](CO)NC(=O)[C@@H](NC(=O)[C@H](Cc1ccccc1)NC(=O)[C@@H](NC(=O)CNC(=O)[C@H](Cc1c[nH]cn1)NC(=O)[C@H](CO)NC(=O)[C@@H](N)Cc1ccc(O)cc1)[C@@H](C)O)[C@@H](C)O)C(C)C)C(=O)N[C@@H](Cc1c[nH]c2ccccc12)C(=O)N[C@@H](CC(C)C)C(=O)N[C@@H](CCC(=O)O)C(=O)N[C@@H](CC(=O)O)C(=O)N[C@@H](CCC(=O)O)C(=O)N1CCC[C@H]1C(=O)N[C@@H](CO)C(=O)N[C@@H](CO)C(=O)NCC(=O)N[C@@H](C)C(=O)N1CCC[C@H]1C(=O)N1CCC[C@H]1C(=O)N1CCC[C@H]1C(=O)N[C@@H](CO)C(=O)O
B4: Compound A1 (peptide)
peptide: YSHGTFTSDYSKYLD[Aib]KYAQEFV[Aib]WLEDEPSSGAPPPS-OH
modifications: N-terminus assumed
SMILES: CC(C)C[C@H](NC(=O)[C@H](Cc1ccc(O)cc1)NC(=O)[C@H](CCCCN)NC(=O)[C@H](CO)NC(=O)[C@H](Cc1ccc(O)cc1)NC(=O)[C@H](CC(=O)O)NC(=O)[C@H](CO)NC(=O)[C@@H](NC(=O)[C@H](Cc1ccccc1)NC(=O)[C@@H](NC(=O)CNC(=O)[C@H](Cc1c[nH]cn1)NC(=O)[C@H](CO)NC(=O)[C@@H](N)Cc1ccc(O)cc1)[C@@H](C)O)[C@@H](C)O)C(=O)N[C@@H](CC(=O)O)C(=O)NC(C)(C)C(=O)N[C@@H](CCCCN)C(=O)N[C@@H](Cc1ccc(O)cc1)C(=O)N[C@@H](C)C(=O)N[C@@H](CCC(N)=O)C(=O)N[C@@H](CCC(=O)O)C(=O)N[C@@H](Cc1ccccc1)C(=O)N[C@H](C(=O)NC(C)(C)C(=O)N[C@@H](Cc1c[nH]c2ccccc12)C(=O)N[C@@H](CC(C)C)C(=O)N[C@@H](CCC(=O)O)C(=O)N[C@@H](CC(=O)O)C(=O)N[C@@H](CCC(=O)O)C(=O)N1CCC[C@H]1C(=O)N[C@@H](CO)C(=O)N[C@@H](CO)C(=O)NCC(=O)N[C@@H](C)C(=O)N1CCC[C@H]1C(=O)N1CCC[C@H]1C(=O)N1CCC[C@H]1C(=O)N[C@@H](CO)C(=O)O)C(C)C

Columns and labels:
Experiment in all cases: cell-based or functional assay
[1] = target: human glucagon receptor (GCGR) (human, UniProt P47871 26-477)
[2] = target: human GLP-1 receptor (GLP-1R) (human, UniProt P43220 24-463)
Target sequence in this assay (P43220 24-463): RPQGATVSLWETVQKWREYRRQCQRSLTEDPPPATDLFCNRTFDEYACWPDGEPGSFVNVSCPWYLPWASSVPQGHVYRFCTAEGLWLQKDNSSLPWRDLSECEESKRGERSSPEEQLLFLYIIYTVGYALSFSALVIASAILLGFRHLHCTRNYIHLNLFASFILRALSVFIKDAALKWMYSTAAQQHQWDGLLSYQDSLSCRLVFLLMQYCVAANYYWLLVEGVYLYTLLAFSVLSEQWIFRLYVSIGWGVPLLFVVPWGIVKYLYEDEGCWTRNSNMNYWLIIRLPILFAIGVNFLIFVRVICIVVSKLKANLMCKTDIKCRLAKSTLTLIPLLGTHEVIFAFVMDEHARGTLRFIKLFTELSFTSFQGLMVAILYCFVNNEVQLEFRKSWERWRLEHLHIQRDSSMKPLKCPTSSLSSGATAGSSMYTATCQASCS

[3] = target: T2, human glucagon receptor (GCGR) (human, UniProt P47871 26-477); remark: listed apart in the source
[4] = target: T3, human GLP-1 receptor (GLP-1R) (human, UniProt P43220 24-463); remark: listed apart in the source
T3 sequence (P43220 24-463): as above

hGIPR = target: T1, hGIPR
[5] = target: T2, human glucagon receptor (GCGR); remark: listed apart in the source
[6] = target: T3, human GLP-1 receptor (GLP-1R); remark: listed apart in the source

| Binder | hGCGR pEC50 (cAMP) mean (n = 9): 11 point curve starting at 1 uM [1] | hGLP1 pEC50 (cAMP) mean (n = 9): 11 point curve starting at 500 uM [2] | Human in vitro Potency (pEC50), hGCGR [3] | Human in vitro Potency (pEC50), hGLP-1R [4] | Human in vitro Potency (pEC50), hGIPR (hGIPR) | GluR pEC 50 [5] | GLP-1R pEC 50 [6] |
| --- | --- | --- | --- | --- | --- | --- | --- |
| B1 | 11.7 pEC50 | 5.4 pEC50 | – | – | – | – | – |
| B2 | – | – | 12.3 pEC50 | 5.2 pEC50 | < 5 pEC50 | 10.6 pEC50 | < 6 pEC50 |
| YSQGTFTSDYSKYLDAARAQEFVKWLEDEPKSKSPPPS-NH2 [Compound A3] | 12.1 pEC50 | 6.7 pEC50 | – | – | – | – | – |
| YSHGTFTSDYSKYLDSARAQEFVKWLEDEPSSGAPPPS-NH2 [Compound A5] | 11.8 pEC50 | 5.8 pEC50 | – | – | – | – | – |
| B3 | 11.8 pEC50 | < 5 pEC50 | – | – | – | – | – |
| B4 | 12.3 pEC50 | 5.2 pEC50 | – | – | – | – | – |
